These results are taken from CN116102649A (SHANGHAI INST OF BIOLOGICAL PRODUCTS CO LTD, dated 2023).

The target of assay [1] is T1, 人CLDN18.2 (claudin-18 isoform 2 [Homo sapiens], NP_001002026.1) (human). Kind of assay: cell-based or functional assay.
The target of assay [2] is T1, 人CLDN18.2 (claudin-18 isoform 2 [Homo …). As to the kind of experiment: cell-based or functional assay. The source holds these as a separate data set.
The target of assay [3] is T2, 人CLDN18.1 (claudin-18 isoform 1 precursor [Homo sapiens], NP_057453.1) (human, UniProt P56856 1-261).
T2 construct: Full-length gene in pEGFP-N2, stably expressed on HEK293 cells (HEK293-hCLDN18.1); also called hCLDN18.1; HEK293-hCLDN18.1
T2 sequence: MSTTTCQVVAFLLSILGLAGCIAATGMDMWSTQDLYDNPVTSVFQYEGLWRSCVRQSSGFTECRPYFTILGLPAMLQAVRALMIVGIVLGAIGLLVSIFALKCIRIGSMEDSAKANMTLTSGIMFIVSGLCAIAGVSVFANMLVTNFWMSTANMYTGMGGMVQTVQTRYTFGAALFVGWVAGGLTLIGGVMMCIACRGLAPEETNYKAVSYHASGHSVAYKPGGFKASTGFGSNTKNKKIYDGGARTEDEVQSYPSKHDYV
As to the kind of experiment: flow cytometry on HEK293-hCLDN18.1 cells. In general terms: In flow cytometry, cells or beads pass a laser one at a time.

Assay [4] has as its target T1, 人CLDN18.2 (claudin-18 isoform 2 [Homo …). Kind of assay: cell ELISA on fixed HEK293-hCLDN18.2 cells. In general terms: An ELISA detects its analyte on a solid surface through an enzyme-linked reagent.
Assay [5] has the same target. Kind of assay: cell ELISA on fixed NUGC4 cells (endogenous human CLDN18.2).
Assay [6] shares this target. As to the kind of experiment: flow cytometry on HEK293-hCLDN18.2 cells, MFI against concentration.

B1: 嵌合抗体ch782 (antibody, V domains shown)
VH: DVQLQESGPDLVKPSQSLSLTCTVTGYSITSGYSWHWIRQFPGNKLEWMGYIHYSDNTNYSPSLKSRISITRDTSKNQFFLQLNSVTTEDTATYYCARIYYGNSFVYWGQGTLVTVSA
VL: DIVMTQSPSSLTVTAGEKVTMSCKSSQSLLNSGNQKNYLTWYQQKPGQPPKLLIYWASTRESGVPDRFTGSGSGTDFTLTINSVQAEDLAVYYCQNDYFYPYTFGGGTKLEIK
On to B1, for which the “CDC on HEK293-hCLDN18.2 cells (rabbit complement, CCK-8), EC50” value in assay [1] was found to be 0.0309 µg/mL. The “ADCC reporter gene assay (Jurkat/NFAT-luc+FcγRIIIa) on HEK293-hCLDN18.2 cells, EC50” value in assay [2] turned out to be 0.0476 µg/mL. Moreover, in assay [3], the binding result is listed as “no binding”. Moreover, the EC50 (usually the concentration that produces a half-maximal response) stood at 0.0173 µg/mL in assay [4], 0.57 µg/mL in assay [5] and 0.81 µg/mL in assay [6]. In addition, the “相对结合活性 (relative to Ref.ch175)” value in assay [4] came out at 180%.

B2: 嵌合抗体ch624 (antibody, V domains shown)
VH: QVQLQQPGAELVRPGASVKLSCKASGYSFTSYWMNWVKQRPGQGLEWIGMIHPSDSETRLNQKFKDKATLTVDKSSSTAYMQLSSPTSEDSAVYYCARTSYGNSFAYWGQGTLVTVSA
VL: DIVMTQSPSSLTVTAGEKVTMSCKSSQSLLNSGNQKNYLTWYQQKPGQPPKLLIYWASTRESGVPDRFTGSGSGTDFTLTISSVQAEDLAVYYCQNDYSYPFTFGSGTKLEIK
For the molecule B2, the binding result in assay [3] is reported as “no binding”. In addition, in assay [4], the EC50 was found to be 0.0392 µg/mL and the “相对结合活性 (relative to Ref.ch175)” value is 79.3%.

B3: 人源化抗体hu782-HV (H1.2-V101A L2组合) (antibody, human IgG1, V domains shown)
VH: QVQLQESGPGLVKPSETLSLTCTVSGYSITSGYSWHWIRQPPGKGLEWMGYIHYSDNTNYAPSLKSRITISRDTSKNQFSLKLSSVTAADTAVYYCARIYYGNSFAYWGQGTLVTVSS
VL: DIVMTQSPDSLAVSLGERATINCKSSQSLLNSGNQKNYLTWYQQKPGQPPLLIYWASTRESGVPDRFSGSGSGTDFTLTISSLQAEDVAVYYCQNDYFYPYTFGGGTKLEIK
On to B3, for which, in assay [1], the “ADCC reporter gene assay on HEK293-hCLDN18.2 cells, EC50” value was determined as 0.0709 µg/mL and the “CDC on HEK293-hCLDN18.2 cells (rabbit complement, CCK-8), EC50” value amounted to 0.0476 µg/mL.
